Laboratory results published in PMC9370705, “Conformational Dynamics of Human ALKBH2 Dioxygenase in the Course of DNA Repair as Revealed by Stopped-Flow Fluorescence Spectroscopy”.

Key:
[1] = molecular target: T1, ALKBH2 (Homo sapiens, UniProt Q6NS38 1-261); test: stopped-flow FRET; Fe(II), 2OG; overall KaSF (Eq. 1); 50 mM HEPES-KOH pH 7.5, 50 mM KCl, 10 mM MgCl2, 25 °C (titration, 1 uM enzyme per legend); 2 mM EDTA for apo; stopped-flow buffer not printed in the material; conditions: protein: recombinant; (Ni-chelating column); label: 5'-FAM and 3'-BHQ1 on strand 1; blunt
T1 sequence: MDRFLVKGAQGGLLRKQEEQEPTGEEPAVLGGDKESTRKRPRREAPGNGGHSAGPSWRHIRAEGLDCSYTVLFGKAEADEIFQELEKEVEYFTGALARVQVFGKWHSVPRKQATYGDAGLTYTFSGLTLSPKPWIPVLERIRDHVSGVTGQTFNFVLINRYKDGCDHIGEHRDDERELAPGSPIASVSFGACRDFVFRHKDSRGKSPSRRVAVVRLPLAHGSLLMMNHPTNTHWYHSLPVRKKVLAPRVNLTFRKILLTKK

[2] = molecular target: T1, ALKBH2; test: stopped-flow FRET; Fe(II), 2OG; initial complex k1/k-1; 50 mM HEPES-KOH pH 7.5, 50 mM KCl, 10 mM MgCl2, 25 °C (titration, 1 uM enzyme per legend); 2 mM EDTA for apo; stopped-flow buffer not printed in the material; conditions: protein: recombinant; (Ni-chelating column); label: 5'-FAM and 3'-BHQ1 on strand 1; blunt
[3] = molecular target: T1, ALKBH2; test: stopped-flow FRET; Fe(II), 2OG; overall KaSF (Eq. 1); Table 2 rates give about 2.3e5; 50 mM HEPES-KOH pH 7.5, 50 mM KCl, 10 mM MgCl2, 25 °C (titration, 1 uM enzyme per legend); 2 mM EDTA for apo; stopped-flow buffer not printed in the material; conditions: protein: recombinant; (Ni-chelating column); label: 5'-FAM and 3'-BHQ1 on strand 1; blunt
[4] = molecular target: T1, ALKBH2; test: stopped-flow εA fluorescence; Fe(II), 2OG; enzyme-product complex after εA repair; 50 mM HEPES-KOH pH 7.5, 50 mM KCl, 10 mM MgCl2, 25 °C (titration, 1 uM enzyme per legend); 2 mM EDTA for apo; stopped-flow buffer not printed in the material; conditions: protein: recombinant; (Ni-chelating column); blunt
[5] = molecular target: T1, ALKBH2; test: Trp fluorescence titration; Fe(II)/2OG complex per Figure 2 legend (text says ALKBH2); 50 mM HEPES-KOH pH 7.5, 50 mM KCl, 10 mM MgCl2, 25 °C (titration, 1 uM enzyme per legend); 2 mM EDTA for apo; stopped-flow buffer not printed in the material; conditions: protein: recombinant; (Ni-chelating column); blunt
[6] = molecular target: T1, ALKBH2; test: stopped-flow fluorescence (FRET/εA); Fe(II), 2OG; overall KaSF (Eq. 1); 50 mM HEPES-KOH pH 7.5, 50 mM KCl, 10 mM MgCl2, 25 °C (titration, 1 uM enzyme per legend); 2 mM EDTA for apo; stopped-flow buffer not printed in the material; conditions: protein: recombinant; (Ni-chelating column); label: 5'-FAM and 3'-BHQ1 on strand 1; blunt
[7] = molecular target: T1, ALKBH2; test: stopped-flow FRET; Fe(II), 2OG; enzyme-product complex after εA repair; 50 mM HEPES-KOH pH 7.5, 50 mM KCl, 10 mM MgCl2, 25 °C (titration, 1 uM enzyme per legend); 2 mM EDTA for apo; stopped-flow buffer not printed in the material; conditions: protein: recombinant; (Ni-chelating column); label: 5'-FAM and 3'-BHQ1 on strand 1; blunt
[8] = molecular target: T1, ALKBH2; test: stopped-flow FRET; Fe(II), 2OG; enzyme-product complex after m1A repair; 50 mM HEPES-KOH pH 7.5, 50 mM KCl, 10 mM MgCl2, 25 °C (titration, 1 uM enzyme per legend); 2 mM EDTA for apo; stopped-flow buffer not printed in the material; conditions: protein: recombinant; (Ni-chelating column); label: 5'-FAM and 3'-BHQ1 on strand 1; blunt

B1: m1A_FRET (dsDNA)
DNA 1: ACAGGATCCGGCATA
DNA 2: TATGCCGGATCCTGT
modifications: N1-methyladenine at position 6 of strand 1
**Q.** How did the Ka [1] turn out when B1 was run?
**A.** 600000 M⁻¹

B2: m3C_FRET (dsDNA)
DNA 1: ACAGGATCCGGCATA
DNA 2: TATGCCGGATCCTGT
modifications: N3-methylcytosine at position 9 of strand 1
**Q.** Which Ka [2] does the source give for B2 here?
**A.** 230000 M⁻¹

**Q.** What about the Ka [3] of the same binder?
**A.** 460000 M⁻¹

B3: undamaged 15 nt duplex (A instead of m1A); also product A of m1A or εA repair (dsDNA)
DNA 1: ACAGGATCCGGCATA
DNA 2: TATGCCGGATCCTGT
**Q.** For B3, which Kd [4] is on record?
**A.** 2200 ± 100 nM

**Q.** And the Kd [5]?
**A.** 7800 ± 1200 nM

B4: εA_FRET (dsDNA)
DNA 1: ACAGGATCCGGCATA
DNA 2: TATGCCGGATCCTGT
modifications: 1,N6-ethenoadenine at position 6 of strand 1
**Q.** B4 was tested. Which Ka [2] did it give?
**A.** 860000 M⁻¹

**Q.** And the Ka [6]?
**A.** 1.9e+06 M⁻¹

B5: repaired product of m1A_FRET or εA_FRET (dsDNA)
DNA 1: ACAGGATCCGGCATA
DNA 2: TATGCCGGATCCTGT
**Q.** What does the source list for B5?
**A.** Kd [7]: 400 ± 10 nM; Kd [8]: 1400 ± 200 nM
